Test results from article PMC6600395, “p53 Binds Preferentially to Non-B DNA Structures Formed by the Pyrimidine-Rich Strands of GAA·TTC Trinucleotide Repeats Associated with Friedreich’s Ataxia”.

What was measured:
p53CD (core domain) [1] = molecular target: T1, p53CD (core domain) (human, UniProt P04637 94-312); assay: EMSA; 50 ng pBSK/SmaI competitor; EMSA: 5 mM Tris-HCl pH 7.6, 0.5 mM EDTA, 0.5 mM DTT, 0.01% Triton X-100, 50 mM KCl, 15 min on ice (agarose 4 °C), pBSK/SmaI competitor in PAGE EMSA; ELISA: same without EDTA, 4 °C, 20 min; settings: protein: recombinant; tags: GST (GST-p53CD, pGEX-4T); chain copies: 4; label: 32P (EMSA); biotin (ELISA); blunt
T1 sequence (P04637 94-312): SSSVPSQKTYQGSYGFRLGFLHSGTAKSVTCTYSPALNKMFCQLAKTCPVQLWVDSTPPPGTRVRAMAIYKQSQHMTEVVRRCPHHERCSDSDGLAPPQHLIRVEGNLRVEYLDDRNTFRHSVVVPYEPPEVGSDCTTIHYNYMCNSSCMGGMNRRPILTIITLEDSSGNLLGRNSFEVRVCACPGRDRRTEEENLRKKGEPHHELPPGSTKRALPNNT

[2] = molecular target: T2, p53 (wild type, full length) (human, UniProt P04637 1-393); assay: EMSA; strongest binder; 75 ng pBSK/SmaI competitor; EMSA: 5 mM Tris-HCl pH 7.6, 0.5 mM EDTA, 0.5 mM DTT, 0.01% Triton X-100, 50 mM KCl, 15 min on ice (agarose 4 °C), pBSK/SmaI competitor in PAGE EMSA; ELISA: same without EDTA, 4 °C, 20 min; settings: protein: recombinant; tags: none stated for pT7-7wtp53 (Methods 3.3 says purified via GST tag); chain copies: 4; label: 32P (EMSA); biotin (ELISA); blunt
T2 sequence (P04637 whole entry): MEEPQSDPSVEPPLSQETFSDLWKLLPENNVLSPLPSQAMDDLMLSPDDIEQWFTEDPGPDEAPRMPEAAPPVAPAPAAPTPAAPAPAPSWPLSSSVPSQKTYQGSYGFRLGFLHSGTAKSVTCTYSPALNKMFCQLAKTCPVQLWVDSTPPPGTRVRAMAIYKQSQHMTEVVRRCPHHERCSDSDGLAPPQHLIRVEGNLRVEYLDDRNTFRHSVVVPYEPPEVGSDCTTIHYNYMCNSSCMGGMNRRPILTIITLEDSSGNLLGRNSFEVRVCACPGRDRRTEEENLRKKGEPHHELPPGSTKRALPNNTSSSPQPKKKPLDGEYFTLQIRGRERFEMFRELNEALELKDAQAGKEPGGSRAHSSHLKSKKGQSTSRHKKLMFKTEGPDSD

[3] = molecular target: T2, p53 (wild type, full length); assay: EMSA; 75 ng pBSK/SmaI competitor; EMSA: 5 mM Tris-HCl pH 7.6, 0.5 mM EDTA, 0.5 mM DTT, 0.01% Triton X-100, 50 mM KCl, 15 min on ice (agarose 4 °C), pBSK/SmaI competitor in PAGE EMSA; ELISA: same without EDTA, 4 °C, 20 min; settings: protein: recombinant, tags: none stated for pT7-7wtp53 (Methods 3.3 says purified via GST tag), chain copies: 4, label: 5'-32P on Lock-F (EMSA), 3'-biotin on Lock-F (ELISA), lock clamp, 3' overhang 3 nt on lock strand
[4] = molecular target: p53CT (C-terminal segment) (human, UniProt P04637 320-393); assay: EMSA; 50 ng pBSK/SmaI competitor; EMSA: 5 mM Tris-HCl pH 7.6, 0.5 mM EDTA, 0.5 mM DTT, 0.01% Triton X-100, 50 mM KCl, 15 min on ice (agarose 4 °C), pBSK/SmaI competitor in PAGE EMSA; ELISA: same without EDTA, 4 °C, 20 min; settings: protein: recombinant, tags: GST (GST-p53CT, pGEX-2TK), chain copies: 4, label: 5'-32P on Lock-F (EMSA), 3'-biotin on Lock-F (ELISA), lock clamp, 3' overhang 3 nt on lock strand
Chain of p53CT (C-terminal segment) (P04637 320-393): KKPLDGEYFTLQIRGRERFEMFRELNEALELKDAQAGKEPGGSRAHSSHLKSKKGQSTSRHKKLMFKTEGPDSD

p53CD (core domain) [5] = molecular target: T1, p53CD (core domain); assay: EMSA; no stable complex; 50 ng pBSK/SmaI; EMSA: 5 mM Tris-HCl pH 7.6, 0.5 mM EDTA, 0.5 mM DTT, 0.01% Triton X-100, 50 mM KCl, 15 min on ice (agarose 4 °C), pBSK/SmaI competitor in PAGE EMSA; ELISA: same without EDTA, 4 °C, 20 min; settings: protein: recombinant, tags: GST (GST-p53CD, pGEX-4T), label: 5'-32P on Lock-F (EMSA), 3'-biotin on Lock-F (ELISA), lock clamp, 3' overhang 3 nt on lock strand
[6] = molecular target: T2, p53 (wild type, full length); assay: ELISA; Kd only in figure; EMSA: 5 mM Tris-HCl pH 7.6, 0.5 mM EDTA, 0.5 mM DTT, 0.01% Triton X-100, 50 mM KCl, 15 min on ice (agarose 4 °C), pBSK/SmaI competitor in PAGE EMSA; ELISA: same without EDTA, 4 °C, 20 min; settings: protein: recombinant; tags: none stated for pT7-7wtp53 (Methods 3.3 says purified via GST tag); chain copies: 4; label: 5'-32P on Lock-F (EMSA); 3'-biotin on Lock-F (ELISA); lock clamp, T loop in strand 1; 3' overhang 3 nt on lock strand
[7] = molecular target: T2, p53 (wild type, full length); assay: EMSA; stronger than TTCNB and FXN-ANB; 50 ng pBSK/SmaI; EMSA: 5 mM Tris-HCl pH 7.6, 0.5 mM EDTA, 0.5 mM DTT, 0.01% Triton X-100, 50 mM KCl, 15 min on ice (agarose 4 °C), pBSK/SmaI competitor in PAGE EMSA; ELISA: same without EDTA, 4 °C, 20 min; settings: protein: recombinant; tags: none stated for pT7-7wtp53 (Methods 3.3 says purified via GST tag); chain copies: 4; label: 5'-32P on Lock-F; lock clamp, Py-rich loop in strand 1; 3' overhang 3 nt on lock strand
[8] = unpaired (TTC)11 loop in strand 1

B1: CON (p53CON) (dsDNA)
DNA 1: GACGGTATCGATAAGAGACATGCCTAGACATGCCTCTTGATATCGAATTC
DNA 2: GAATTCGATATCAAGAGGCATGTCTAGGCATGTCTCTTATCGATACCGTC
B1: binds (p53CD (core domain) [1]); binds [2].

B2: TTCNB (structured_DNA)
DNA 1: GGGGCCTTAGGTATTCTTCTTCTTCTTCTTCTTCTTCTTCTTCTTCATGGTACCGCGG
DNA 2: CCGCGGTACCATTACCTAAGGCCCCAAC
B2: binds [3, 8]; binds [4, 8]; no binding (p53CD (core domain) [5]; [8]).

B3: TNB (structured_DNA)
DNA 1: GGGGCCTTAGGTATTTTTTTTTTTTTTTTTTTTTTTTTTTTTTTTTATGGTACCGCGG
DNA 2: CCGCGGTACCATTACCTAAGGCCCCAAC
B3: binds [6]; binds ([4]; T loop in strand 1); no binding (p53CD (core domain) [5]; T loop in strand 1).

B4: CTGNB (structured_DNA)
DNA 1: GGGGCCTTAGGTACTGCTGCTGCTGCTGCTGCTGCTGCTGCTGCTGATGGTACCGCGG
DNA 2: CCGCGGTACCATTACCTAAGGCCCCAAC
B4: binds ([3]; (CTG)11 hairpin in strand 1); binds ([4]; (CTG)11 hairpin in strand 1); no binding (p53CD (core domain) [5]; (CTG)11 hairpin in strand 1).

B5: FXN-TNB (structured_DNA)
DNA 1: GGGGCCTTAGGTATTTTCTTTATTTTCTTCTTCTTCTTCTTCTTTTTTTTTTTTTTTTGTATTTTTTATGGTACCGCGG
DNA 2: CCGCGGTACCATTACCTAAGGCCCCAAC
B5: binds [7].
